Article doi:10.1101/2023.05.29.542777

Experiments:
Test in all cases: co-IP
[1] = molecular target: TbTim12-3X-HA (T. brucei)
[2] = molecular target: TbTim9-3X-HA (T. brucei)
[3] = molecular target: TbTim8/13-3X-HA (T. brucei)
[4] = molecular target: TbTim10-3X-HA (T. brucei)
[5] = molecular target: TbTim13-3X-HA (T. brucei)
[6] = molecular target: TbTim10-2X-Myc (T. brucei)

For TbTim10-2X-Myc (natural protein), the percent of the input co-precipitated [1] was < 10%, the percent of the input co-precipitated (% of the input) [2] was 60 and the percent of the input co-precipitated (% of the input) [3] was 60. For the same substance, the percent of the input co-precipitated [4] was < 10% and the percent of the input co-precipitated [5] was < 10%.

Substance TbTim9-3X-HA (natural protein) has a percent of the input co-precipitated (% of the input) [6] of 35.

TbTim10-3X-HA (natural protein) gave a percent of the input co-precipitated (% of the input) [6] of 30.

With TbTim12-3X-HA (natural protein) the percent of the input co-precipitated (% of the input) [6] was 25.

In the case of TbTim8/13-3X-HA (natural protein), the percent of the input co-precipitated (% of the input) [6] was 45.
